Reference: the nanobody polyreactivity screen of Harvey et al. (2022)

Assay: yeast display, Sf9 membrane polyspecificity reagent, FACS + sequencing; frameworks hold sequencing errors
Summary of the method: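 A synthetic nanobody library was expressed on Saccharomyces cerevisiae BJ5465 by galactose induction for 36–48 hours. The library was stained for 1 hour at 4 °C with 10% biotinylated, detergent-solubilized Sf9 membrane reagent and enriched with streptavidin microbeads before FACS. Low and high (top ~1%) gates were set on anti-HA fluorescence for expression and streptavidin fluorescence for reagent binding, and each polyreactivity label reflects the gate of origin.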
In the case of “QVQLVESGGGLVQAGVSLRLSCAASGSTFTSYAMGWYRQAPGKERELVAAINDSAGSTYYADSVKGRFTISRDNAKNTAYLQKNSLKPDDTAVYYCAADGYNRQYVTYYYWGQGTQVTVSS”, the “polyreactivity (PSR sort gate)” value is reported as “low polyreactivity”.
With “QVHLVESGGGLVQAGGSLRLSCAASGRIFFYYAMGWYRQAPGKERELVAAISSTGGSTNYADSVKGRFTISRDNAKNTVYLQMNSLKPEDTAVYYCNKDLYYAYDYWGQGTQVTVSS” the “polyreactivity (PSR sort gate)” value was “low polyreactivity”.
In the case of “QVQLVESGGGLVQAGGSLRLSCAASGFTFRRYDMGWYRQAPGKERELVATINRGGSTDYADSVKGRFTISRDNAKNTVYLQLNSLKPEDTAVYYCATRYYSSRTWSEYYYWGQGTQVTVSS”, the “polyreactivity (PSR sort gate)” value is reported as “high polyreactivity”.
With “QVQLVESGGGLVQAGGSLRLSCAASGFTFPDYAMGWYRQAPAKERELVAAISSDGSTYYADSVNGRFTISRDNAHNTVYLQMNSLKPEDTAVYYCAAYVVWLYGYDYWGQGTQVTVSS” the “polyreactivity (PSR sort gate)” value was “low polyreactivity”.
In the case of “QVQLVESGGGLVQAGGSLRLSCAASGSIFRIYAMGWYRQAPGKERELVAAISRGSTRTYYADSVKGRFTISRDNAKNTVYLQMNSLKPEDTAVYYCNKAYPPEYDYWGQGTQVTVSS”, the “polyreactivity (PSR sort gate)” value is reported as “high polyreactivity”.
In the case of “QVQLVESGGGLDQAGGSLRLSSAASGSMILHNDMGWYRQAPGKEMELVATIDSAGGTYYADSVKGRFTISRDNAKNTVYLQMNSLKPEDSAVYYCAAYGPYVLSIYDYWGQGTQVTVSS”, the “polyreactivity (PSR sort gate)” value is reported as “low polyreactivity”.
For “QVQRVESGGGLVQAGGSLRLSCAASGIFYWYGMGWYRQAPGKDRELVASITGGGRTYYADSVKGRFTISRDNAKNTVYLQMNSLKPEDTAVNYCATRYWGGLPRRWYDYWGQGTQVTVSS”, the “polyreactivity (PSR sort gate)” value was “high polyreactivity”.
In the case of “QVQLVESGGGLVQAGGSLRLSCAASGSIFFGYAMGWYRQAPGKERELVAAISTRGGRTYYADSVKGRFTISRDNAKNTVYLQMNSLKPEDTAVYYCAAFQAHQTAFDYWGQGTQVTVSS”, the “polyreactivity (PSR sort gate)” value is reported as “high polyreactivity”.
For “QVQLVESGGGLVQAGGSLRLSCAATGFTFNRYTMGWYRQAPGKERELVASISVRGSRTYSADSVKGRFTISRDNAKNTVYLQMNSLKPEDTAVYYCNAKTYVYYRLRSYYYWGQGTQVTVSS”, the “polyreactivity (PSR sort gate)” value was “high polyreactivity”.
With “QVHHVESAGGLVQAGASLRLSSAASGSTIYRYAMGWYRQTPGKERELVARIDWSDGSTNYADSVKGRFTISRDNAKNTVYLQMNSLKPEDTGVYYCASDTYYDTYDGEYEYWGQGTQVTVSS” the “polyreactivity (PSR sort gate)” value was “low polyreactivity”.
In the case of “QVLLVESGGGLVQAGGSLRLSCASSGRILGYYAKGWYRQAPGKERELVAGITYSAGRTYYADSVKGRFTISRDNSKNTVYLQINRQTPEDTAVYYCAKALVRSGSTRGTPGYSYWGQGTQVTVSS”, the “polyreactivity (PSR sort gate)” value is reported as “high polyreactivity”.
With “QVQLVESGGGLVQAGGSLRLSCAASGSILGPYAMGWYRQAPGKERELVAANSQSGARTYYADSVKGRFTISRDNAKNTVYLQMNSLKPEDTAVYYCAAQSRKGGWSAYYYWGQGTQVTVSS” the “polyreactivity (PSR sort gate)” value was “high polyreactivity”.
With “QVQLVESGGGLVQAGGTLRLSCAASGITFYVYAMGWYRQAPGKEREFVAAINGRGGSTYYADSVKGRFTISRDNAKNTVYLQMNSLKPEDTAVFYCAAESLAIYYKYPPYDYWGQGTQVTVSS” the “polyreactivity (PSR sort gate)” value was “high polyreactivity”.
For “QVQLVESGGGLVQAGGSLRLSCAASGNTFWYYAMGWYRQAPGKEREFVAAISRRGTTTYYADSVKWRFTISRDNAKNTVYLQMNSLKPEDTAVYYCAARRYVSVFRVSATGLDLGYWGQGTQVTVSS”, the “polyreactivity (PSR sort gate)” value was “high polyreactivity”.
In the case of “QVQLLESGGGLVQAGGSLRLTCAASGSTFRYNAMGWYRQAPGKERELVAAISSGSSTNYADSVKGRFTLSRDNAKNTVYLQMNSLKPEDTAVYYCAAQPGYYDDFYYWGQGTQVTVSS”, the “polyreactivity (PSR sort gate)” value is reported as “low polyreactivity”.
For “QVQLVESGGGLVQAGGSLRLSCAASGRTFPWYTMGWYRQAPGKERELVAAISWSGGSTFYADSVKGRFTISRDNAKNTVYLQMNSLKPEDTAVYYCAARSRPTVQRGYAYGYWGQGTQVTVSS”, the “polyreactivity (PSR sort gate)” value was “low polyreactivity”.
In the case of “QVQLVESGGGLVQAGGSLRLICAASGTFYYYAMGWYRQAHGNERELVAAISTSDTSTYYADSVKGRFTISRDNAKNTVYLQMNSLKPEDTAVYYCAADTYHNFDYWGQGTQVSVSS”, the “polyreactivity (PSR sort gate)” value is reported as “low polyreactivity”.
For “QVQLVESGGGLVQAGGSLRLSCDASGFILSSNAMGWYRQAPGKERELVAAISSSGRTYYTDSVKGRFTISRDNAKNTVYLQMNSLKPEDTAVYYCAAGGYYYAIGYWGQGTQVTLSS”, the “polyreactivity (PSR sort gate)” value was “high polyreactivity”.
For “QVQLVESGGGLVQAGGSLRLSCAASGFIFRSNTMGWYRQAPGKERELVAAITWSGGNTYYADSVKGRFTISRDNAKNTVYLQMNSLKPEDTAVYYCATVTRLYRHGYWGQGTQVTVSS”, the “polyreactivity (PSR sort gate)” value was “high polyreactivity”.
With “QVQLVESGGGLVQAGGSLRLSCAASGRTIRNNAMGWYRQAPGKERDLVASITRSGGSTYYADSVKGRFTISRDNANNSVSLQLNSLKPEDTSVFYCNRVAHSLTYPTDHEFNYWGQGTQVTVSS” the “polyreactivity (PSR sort gate)” value was “high polyreactivity”.
In the case of “QVQLQESGGGLVQAGGSLRLTCAASRNISGSADLGWYHPAPGKEREFVASITSGGTTYYADSVKGRVTISRDNAKNTVYLQMNSLKPEDTAVYYCAVGDPADAEFGYWGQGSQVTVSS”, the “polyreactivity (PSR sort gate)” value is reported as “low polyreactivity”.
In the case of “QVQLVESGGGLVQAGGSLRLSCAASGGNFEWNAMGWYRQAPGKERELVAAISNTGGSTSYADSVKGRFTISRDNAKNTVYLQMNSLKTEDTAVYYCNTVNRYEFGYWGQGSQVTVSS”, the “polyreactivity (PSR sort gate)” value is reported as “high polyreactivity”.
In the case of “QVQLVESGGGLVQAGGSLRLSCAASGSTFGGNAMGWYRQAPGKERELVASISSSGGRTYYADSVKGRFTISRDNAKNTVYLQMNSLKPEDTAVYYCAAKAWYPRVGFLRGGYWGQGTQVTVSS”, the “polyreactivity (PSR sort gate)” value is reported as “high polyreactivity”.
With “QVQLVESGGGLVQAGGSLRLSCAASGGTFYYNAMGWYRQAPGKERELVAAITSGDRTYYADSVKGRFTISRDNAKYTVYLQMNSLKPEDTAVYYCAARWFRSNKYWGQGTQVTVSS” the “polyreactivity (PSR sort gate)” value was “high polyreactivity”.
With “QFQLVESGGCLVQAGGSLRLSCAASGSIFLENTMGWYRQARGKEWEVVAPITSSGDSTYADSVKGRFTIARDNAKNTVYLHMNSLKPEDTAVYYCAAYAGSVRPGDLYGYDYWGQGTQVTVSS” the “polyreactivity (PSR sort gate)” value was “low polyreactivity”.
In the case of “QVQLVESGGGLVQAGGSLRLSCAASGFTAYGYAMGWYRQAPGQERELVAAISRSGGSTYYADSVKGRFTISRDNAKNTVYLQMYSLKPDDTAVYYCAVAVGREYVYRYYYWGQGTQVTVSS”, the “polyreactivity (PSR sort gate)” value is reported as “high polyreactivity”.
For “QVQLVESGGGLVQAGGSLRLSCAASGSIFDLYDMGWYRQAPGKERELVADISFSGGSTFYADSVKGRFTISRDNAKNTVYLQMNSLKPEDTAVYYCAADAALITDYGWADMYYWGQGTQVTVSS”, the “polyreactivity (PSR sort gate)” value was “low polyreactivity”.
In the case of “QVQLVDSGGGLVQAGGSLRLSCAASGITFYDYTMGWYRQAPGKERELVAAITSSGVSTYYADSVKGRFTISRDNAKNTVYLQMNSLKPEDTAVYYCAADLYEDPNGEDDYWGQGTQVTVSS”, the “polyreactivity (PSR sort gate)” value is reported as “low polyreactivity”.
With “QVQLVESGGGLVQAGGSLRLSCAASGSIFGPYAMGWYRQAPGKERYADSVKGRFTISRDNAKNTVYLQMNSLKPEDTAVYYCNADTSRWRYSQPIYDYWGQGTQVTVSS” the “polyreactivity (PSR sort gate)” value was “low polyreactivity”.
In the case of “QVQLVESGGGLVQAGGSLRLSCAASGRIFGGYAMGWYRQAPGKERELVAGIRSGGSTYYADSVKGRFTISRDIAKNTVYLQINSLKPEDTAVYYCNARLYFWNRYTYSQNNYWGQGTQVTVSS”, the “polyreactivity (PSR sort gate)” value is reported as “high polyreactivity”.
For “QVQLVESGGGLVQAGGSLRLSCAASGSTFDYYAMGWYRPAPGKERELVAAISRRGGGTYYADSVKGRFTISRDNAKNTVYLQMNSLKPEDTAVYYCAKAVKYPTKALAVGYWGQGTQVTVSS”, the “polyreactivity (PSR sort gate)” value was “high polyreactivity”.
With “QVQLVESGGGLVQAGGSLRLSCAASGRIFYRNTMGWYRQAPGKERELVAAITWRAGRTYYADSVKGRFTISRDNAKNTVYLQMNSLKPEDTAVYYCNADRTAPERYSRVPSSDSWGQGTQVTVSS” the “polyreactivity (PSR sort gate)” value was “high polyreactivity”.
For “QVQLVESGGGLVQAGGSLRLSCAASGSTFGANAMGWYRQAPGKEREFVAAISSGGRTNYADSVKGRFTISRDNAKNTVYLQMNSLKPEDTAVYYCAASFRRWYFYARHEYGYWGQGTQVTVSS”, the “polyreactivity (PSR sort gate)” value was “low polyreactivity”.
For “QVQLVESGGCLVQAGGSLRLSCAASGNTFVDYAMGWYRQAPGKERELGAAIDQTGGSTYYADSVKGRFTISRDNAKNTVYLQMNSLKPVDTAVYYCASDLSDRKDLYPRWYDYWGQGSQVTVSS”, the “polyreactivity (PSR sort gate)” value was “low polyreactivity”.
With “QVQLVESGGGLVQAGGSLRLSCAASGSIFGRNDMGWYRQAPGKERELVARITRGGSTNYADSVKGRFTISRDNAKNTVYLQMNSLKPEDTAVYYCAKEFKYWGYPYDYWGQGTQVTVSS” the “polyreactivity (PSR sort gate)” value was “low polyreactivity”.
With “QVQLVESGGGLVQAGGCLRLSCAASGRIFYANTMGWYRQAPGIEWELVASMYGAVGTYADSVKGRFTISRDKAKNTVSLQMNSLKPEDTAVYYCNAYLTRPVEEYLWDGYYYWGQGTQVTVSA” the “polyreactivity (PSR sort gate)” value was “low polyreactivity”.
For “QVQLVESGGGLVQAGGSLRLSCAASGFTFSLYAMGWYRQAPGKERELVAAISRSGGSTYYADSVKGRFTISRDNAKNTVYLQMNSLNPEDTAVYYCAAREQTYTQRGKKLYYYWGQGTQVTVSS”, the “polyreactivity (PSR sort gate)” value was “high polyreactivity”.
In the case of “QVQLVESGGGLVQAGGSLRLSCAASGITFDHYAMGWYRQAPGKEREFVAAIDDIGGDTYYADSVKGRFTISRDNAKNTVYLQMNSLKPEETAVYYCATDYPWIFGHFLMDYWGQGTQVTVSS”, the “polyreactivity (PSR sort gate)” value is reported as “low polyreactivity”.
In the case of “QVQLVESGGGLVQAGGSLRLSCAASGSTFKVYAMGWYRQAPGKERELVAAISTGGGSTYYADSVKGRFTISRDNAKNTVSLQMNSLKPEDTAVYYCAAVDRYPYAGYYWGQGTQVTVSS”, the “polyreactivity (PSR sort gate)” value is reported as “high polyreactivity”.
In the case of “QVQLVESGGGLVQAGGSLRLSCAASGSTSYDNAMGWYRQAPGKERELDASISSDGSTNYADSVKGRFTISRDNAKNTVYLQMNSLKPEDTAVYYCNVEVTRGLSHDPEYDYWGQGTQVTVSS”, the “polyreactivity (PSR sort gate)” value is reported as “low polyreactivity”.
In the case of “QVQLVESGGGLVQAGGSLRLSCAASGTTLPYYAMGWYRQAPGKERELVAAITSSGGDTYYADSVKGRFTISRDNAKNTVYLQMNSLKPEDTAVYYCAKSYSARSTVRKLFYFAYDYWGQGTQVTVSS”, the “polyreactivity (PSR sort gate)” value is reported as “low polyreactivity”.
In the case of “QVQLVESGGGLVQAGGSLRLSCAASGRTFRYNAMGWYRQAPGKERELVAAISASGGSTYYADSVKGRFTISRDNAKNTVYLQMNSLKPEDTAVYYCATYYRVGYDYWGQGTQVTVSS”, the “polyreactivity (PSR sort gate)” value is reported as “high polyreactivity”.
In the case of “QVQLVESGGGLVQAGGSLRVSCAASGRTFPYYDMGWYRQAPGKEREFVAAITWRGGSTYYADSVKGRFTISRDNAKNTVYLQMNSLKPEDSAVYYCATDSLRLYGGKRDLYYWGQGTQVTVSS”, the “polyreactivity (PSR sort gate)” value is reported as “low polyreactivity”.
